Results published in patent US20240270846A1 (published 2024).
Where a chain is given by its changes, count along the chain named. Numbers in names are those of the source. Where “and” joins values, the source holds several entries; their conditions need not be identical. Equal entries are not always repeated.

B1: dBBDu167/L094 (antibody, V domains shown)
VH: QVQLVESGGGLVQPGRSLRLSCAASGFTFSNAWMHWVRQAPGKGLEWVAQIKDKGNLYAAYYAPSVKGRFTISRDDSKNSIYLQMNSLKTEDTAVYYCHYVHYASAGGGLPGFGVDAWGQGTTVTVSS
VL: DIVMTQSPLSLPVTPGEPASISCYASEELLHINRHIYLHWYQQKPGQAPRLLIYKVYNRFNGVPDRFSGSGSGTDFTLKISRVEAEDVGVYYCAQGSSVPFTFGQGTKLEIK
notes: Purified IgG; Fab genes of the panning output converted into IgG format; also called dBBDu_167/dBBDu.L094
B2: dBBDu186/L098 (antibody, V domains shown)
VH: B1 VH with K54R, G55S, L57Q, A60T, S105Q, G107S, G108T, G109V, G112A
VL: B1 VL with Y24A, L30V, H35Y, Y37F, Y57S, N61I, S98Q
notes: Purified IgG; Fab genes of the panning output converted into IgG format
B3: dBBDu186/L108 (antibody, V domains shown)
VH: B1 VH with K54R, G55S, L57Q, A60T, S105Q, G107S, G108T, G109V, G112A
VL: B1 VL with Y24R, A25T, H35F, I36T, Y37F, Y57S, N61M, S98A
notes: as for B2
B4: dBBDu186/L100 (antibody, V domains shown)
VH: B1 VH with K54R, G55S, L57Q, A60T, S105Q, G107S, G108T, G109V, G112A
VL: B1 VL with Y24S, L30V, H35Y, Y37F, N61M, A94G
notes: as for B2
B5: dBBDu186/L106 (antibody, V domains shown)
VH: B1 VH with K54R, G55S, L57Q, A60T, S105Q, G107S, G108T, G109V, G112A
VL: B1 VL with Y24S, A25T, H35F, Y37F, Y57A, N61M, S98Q
notes: as for B2
B6: dBBDu189/L119 (antibody, V domains shown)
VH: B1 VH with V48I, K54R, G55S, L57Q, A60T, S105Q, G107S, G108S, G109L, G112S
VL: B1 VL with Y24T, E27Q, L30V, H35F, Y37F, Y57S, N61I, S98Q
notes: as for B2
B7: dBBDu_H115/L039 (antibody, human IgG1, V domains shown)
VH: QVQLVESGGGLVQPGRSLRLSCAASGFTFSNAWMHWVRQAPGKGLEWVAQIKDKANSYNTYYAPSVKGRFTISRDDSKNSIYLQMNSLKTEDTAVYYCRYVHYGSSYGFLFAGYGVDAWGQGTTVTVSS
VL: DIVMTQSPLSLPVTPGEPASISCTSSQSLLHANRNTYLHWYQQKPGQAPRLLIYKVSNRFSGVPDRFSGSGSGTDFTLKISRVEAEDVGVYYCAQGTSAPFTFGQGTKLEIK
notes: Full length IgG (human IgG1 CH1-Fc heavy chain, kappa light chain)
B8: dBBDu_H115/L035 (antibody, human IgG1, V domains shown)
VH: B7 VH
VL: B7 VL with T24A, S25A, Q27E, A32T, S98Q, A99S
notes: as for B7
B9: dBBDu_H115/L016 (antibody, human IgG1, V domains shown)
VH: B7 VH
VL: B7 VL with L9M, T24Q, Q27E, S61N, S98A, A99N, F101Y
notes: as for B7
B10: dBBDu_H115/L014 (antibody, human IgG1, V domains shown)
VH: B7 VH
VL: B7 VL with A32Q, S61N, S98A, A99N
notes: as for B7
B11: dBBDu_H115/L008 (antibody, V domains shown)
VH: B7 VH
VL: B7 VL with T24Q, Q27E, S28E, N35K, S57Q, S98A, A99T
notes: Full length IgG (human IgG1 CH1-Fc heavy chain, kappa light chain); also called Du115/DUL008
B12: CE115HA000 V11L/D72A/L78I/D101Q with GGSGGS inserted between Kabat positions 99 and 100, one-arm antibody (antibody, V domains shown)
VH: QVQLVESGGGLVQPGRSLRLSCAASGFTFSNAWMHWVRQAPGKGLEWVAQIKAKSNNYATYYAESVKGRFTISRADSKNSIYLQMNSLKTEDTAVYYCRYVHYGAGGSGGSYYGVQAWGQGTTVTVSS
VL: DIVMTQSPLSLPVTPGEPASISCRSSQSLVHSNRNTYLHWYQQKPGQAPRLLIYKVSNRFSGVPDRFSGSGSGTDFTLKISRVEAEDVGVYYCGQGTQVPYTFGQGTKLEIKR
B13: CE115HA000 V11L/D72A/L78I/D101Q with GGSGGGS inserted between Kabat positions 99 and 100, one-arm antibody (antibody, V domains shown)
VH: QVQLVESGGGLVQPGRSLRLSCAASGFTFSNAWMHWVRQAPGKGLEWVAQIKAKSNNYATYYAESVKGRFTISRADSKNSIYLQMNSLKTEDTAVYYCRYVHYGAGGSGGGSYYGVQAWGQGTTVTVSS
VL: B12 VL
B14: CE115HA000 V11L/D72A/L78I/D101Q with GGSGGSGGS inserted between Kabat positions 99 and 100, one-arm antibody (antibody, V domains shown)
VH: QVQLVESGGGLVQPGRSLRLSCAASGFTFSNAWMHWVRQAPGKGLEWVAQIKAKSNNYATYYAESVKGRFTISRADSKNSIYLQMNSLKTEDTAVYYCRYVHYGAGGSGGSGGSYYGVQAWGQGTTVTVSS
VL: B12 VL
B15: L chain one-amino acid altered form of GLS3000, G to Y at Kabat position 89 (one-arm antibody: CE115HA000-pE22Hh / Kn010G3 / altered GLS3000-kappa) (antibody, human IgG1, kappa, L234A L235A, N297A, name in Kabat numbering)
heavy: QVQLVESGGGVVQPGRSLRLSCAASGFTFSNAWMHWVRQAPGKGLEWVAQIKAKSNNYATYYAESVKGRFTISRDDSKNSLYLQMNSLKTEDTAVYYCRYVHYGAYYGVDAWGQGTTVTVSSASTKGPSVFPLAPSSKSTSGGTAALGCLVKDYFPEPVTVSWNSGALTSGVHTFPAVLQSSGLYSLSSVVTVPSSSLGTQTYICNVNHKPSNTKVDKKVEPKSCDKTHTCPPCPAPEAAGGPSVFLFPPKPKDTLMISRTPEVTCVVVDVSHEDPEVKFNWYVDGVEVHNAKTKPREEQYASTYRVVSVLTVLHQDWLNGKEYKCKVSNKALPAPIEKTISKAKGQPREPQVYTLPPSRCELTKNQVSLSCAVKGFYPSDIAVEWESNGQPENNYKTTPPVLDSDGSFFLVSKLTVDKSRWQQGNVFSCSVMHEALHNHYTQKSLSLSPDYKDDDDK
chain: EPKSSDKTHTCPPCPAPELLGGPSVFLFPPKPKDTLMISRTPEVTCVVVDVSHEDPEVKFNWYVDGVEVHNAKTKPREEQYNSTYRVVSVLTVLHQDWLNGKEYKCKVSNKALPAPIEKTISKAKGQPREPQVCTLPPSRDELTKNQVSLWCLVKGFYPSDIAVEWESNGQPENNYKTTPPVLDSDGSFFLYSKLTVDKSRWQQGNVFSCSVMHEALHNRYTQKSLSLSP
light: DIVMTQSPLSLPVTPGEPASISCRSSQSLVHSNRNTYLHWYQQKPGQAPRLLIYKVSNRFSGVPDRFSGSGSGTDFTLKISRVEAEDVGVYYCYQGTQVPYTFGQGTKLEIKRTVAAPSVFIFPPSDEQLKSGTASVVCLLNNFYPREAKVQWKVDNALQSGNSQESVTEQDSKDSTYSLSSTLTLSKADYEKHKVYACEVTHQGLSSPVTKSFNRGEC
notes: One-arm antibody (IgG lacking one Fab); also called GLS3000 G89Y
B16: L chain one-amino acid altered form of GLS3000, V to Y at Kabat position 94 (one-arm antibody: CE115HA000-pE22Hh / Kn010G3 / altered GLS3000-kappa) (antibody, human IgG1, kappa, L234A L235A, N297A, name in Kabat numbering)
heavy: B15 heavy
chain: B15 chain
light: B15 light with Y94G, V99Y
notes: One-arm antibody (IgG lacking one Fab); also called GLS3000 V94Y
B17: L chain one-amino acid altered form of GLS3000, Q to Y at Kabat position 93 (one-arm antibody: CE115HA000-pE22Hh / Kn010G3 / altered GLS3000-kappa) (antibody, human IgG1, kappa, L234A L235A, N297A, name in Kabat numbering)
heavy: B15 heavy
chain: B15 chain
light: B15 light with Y94G, Q98Y
notes: One-arm antibody (IgG lacking one Fab); also called GLS3000 Q93Y
B18: L chain one-amino acid altered form of GLS3000, Q to Y at Kabat position 90 (one-arm antibody: CE115HA000-pE22Hh / Kn010G3 / altered GLS3000-kappa) (antibody, human IgG1, kappa, L234A L235A, N297A, name in Kabat numbering)
heavy: B15 heavy
chain: B15 chain
light: B15 light with Y94G, Q95Y
notes: One-arm antibody (IgG lacking one Fab); also called GLS3000 Q90Y
B19: L chain one-amino acid altered form of GLS3000, G to Y at Kabat position 91 (one-arm antibody: CE115HA000-pE22Hh / Kn010G3 / altered GLS3000-kappa) (antibody, human IgG1, kappa, L234A L235A, N297A, name in Kabat numbering)
heavy: B15 heavy
chain: B15 chain
light: B15 light with Y94G, G96Y
notes: One-arm antibody (IgG lacking one Fab); also called GLS3000 G91Y
B20: L chain one-amino acid altered form of GLS3000, T to Y at Kabat position 92 (one-arm antibody: CE115HA000-pE22Hh / Kn010G3 / altered GLS3000-kappa) (antibody, human IgG1, kappa, L234A L235A, N297A, name in Kabat numbering)
heavy: B15 heavy
chain: B15 chain
light: B15 light with Y94G, T97Y
notes: One-arm antibody (IgG lacking one Fab); also called GLS3000 T92Y

The binders below were run against T1, biotin-labeled human CD137 fused to human IgG1 Fc fragment (human, biotin-labeled) (assay: bead ELISA, IgG on biotin-human CD137-Fc; competitor: free CD3 epsilon 62.5 pmol).
T1 construct: also called human CD137-Fc; biotin-human CD137-Fc

| Binder | ELISA signal, Free CD3e 62.5 pmol |
| --- | --- |
| B1 | 4370 |
| B2 | 15900 |
| B3 | 50800 |
| B4 | 88900 |
| B5 | 3090 |
| B6 | 20400 |

The binders below were run against T1, biotin-labeled human CD137 fused to … (assay: bead ELISA, IgG on biotin-human CD137-Fc; control competitor: free human IgG1 Fc 62.5 pmol).

| Binder | ELISA signal, Free Fc 62.5 pmol |
| --- | --- |
| B1 | 141000 |
| B2 | 115000 |
| B3 | 83600 |
| B4 | 102000 |
| B5 | 9860 |
| B6 | 88100 |

The binders below were run against T2, biotin-labeled human CD137 fused to human IgG1 Fc fragment (human, biotin-labeled) (assay: bead ELISA, IgG on biotin-human CD137-Fc; signal with free CD3e 62.5 pmol against free Fc 62.5 pmol).
T2 construct: also called human CD137-Fc; biotin-human CD137-Fc

| Binder | Signal decrease |
| --- | --- |
| B7 | 97.2% |
| B8 | 97.9% |
| B9 | 96.7% |
| B10 | 97.9% |
| B11 | 98.1% |

Target: T3, biotinylated CD3 epsilon epitope peptide (UniProt P07766 22-48, biotinylated)
T3 chain: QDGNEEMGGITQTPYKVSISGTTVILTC
Assay: SPR (Biacore); biotinylated CD3 epsilon epitope peptide on chip via streptavidin, antibody as analyte

| Binder | Kd |
| --- | --- |
| B12 | 34.6 nM and 31.1 nM |
| B13 | 43.5 nM and 34.3 nM |
| B14 | 43.9 nM and 35.4 nM |

What follows are binders tested against T4, CD3 epsilon homodimer protein (UniProt P07766 23-126) (assay: SPR, Biacore T200, CD3 epsilon homodimer immobilized on CM4, one-arm antibody as analyte, 25 degrees C).
T4 construct: also called CD3 (CD3 epsilon)

| Binder | ratio of amounts bound (Z = Y/X) against the unaltered GLS3000 antibody |
| --- | --- |
| B15 | 1.19 |
| B16 | 0.63 |
| B17 | 0.87 |
| B18 | 0.17 |
| B19 | 0.17 |
| B20 | 0.33 |

Each binder was assayed against T1, biotin-labeled human CD137 fused to … (assay: bead ELISA, IgG on biotin-human CD137-Fc; decrease with free CD3 epsilon 62.5 pmol against free Fc 62.5 pmol).

| Binder | Signal decrease |
| --- | --- |
| B1 | 96.9% |
| B2 | 86.2% |
| B3 | 39.2% |
| B4 | 13% |
| B5 | 68.7% |
| B6 | 76.9% |

These binders were tested against T2, biotin-labeled human CD137 fused to … (assay: bead ELISA (chemiluminescence), IgG on biotin-human CD137-Fc on streptavidin beads; competitor free CD3 epsilon 62.5 pmol).

| Binder | ELISA signal with Free CD3e 62.5 pmol |
| --- | --- |
| B7 | 1550 |
| B8 | 1470 |
| B9 | 1540 |
| B10 | 1510 |
| B11 | 1450 |

These binders were tested against T2, biotin-labeled human CD137 fused to … (assay: bead ELISA (chemiluminescence), IgG on biotin-human CD137-Fc on streptavidin beads; control competitor free human Fc 62.5 pmol).

| Binder | ELISA signal with Free Fc 62.5 pmol |
| --- | --- |
| B7 | 55800 |
| B8 | 70600 |
| B9 | 46800 |
| B10 | 72100 |
| B11 | 76900 |
